substance,measurement,setting,value
"human NIM1 kinase-GST (recombinant Nim1-GST, expressed in Sf21 insect cells from pVL1392/GST-NIM1)","phosphorylation of substrate in in vitro kinase assay ([gamma-32P]-ATP, SDS-PAGE, autoradiography)",histone,"phosphorylated its substrates MBP, lane 2, and HIST. 1, lane 4"
same,"phosphorylation of substrate in in vitro kinase assay ([gamma-32P]-ATP, SDS-PAGE, autoradiography)",myelin basic protein,"phosphorylated its substrates MBP, lane 2, and HIST. 1, lane 4"
# Sequence of human NIM1 kinase-GST (recombinant Nim1-GST, expressed in Sf21 insect cells from pVL1392/GST-NIM1) (chain, as listed by the source): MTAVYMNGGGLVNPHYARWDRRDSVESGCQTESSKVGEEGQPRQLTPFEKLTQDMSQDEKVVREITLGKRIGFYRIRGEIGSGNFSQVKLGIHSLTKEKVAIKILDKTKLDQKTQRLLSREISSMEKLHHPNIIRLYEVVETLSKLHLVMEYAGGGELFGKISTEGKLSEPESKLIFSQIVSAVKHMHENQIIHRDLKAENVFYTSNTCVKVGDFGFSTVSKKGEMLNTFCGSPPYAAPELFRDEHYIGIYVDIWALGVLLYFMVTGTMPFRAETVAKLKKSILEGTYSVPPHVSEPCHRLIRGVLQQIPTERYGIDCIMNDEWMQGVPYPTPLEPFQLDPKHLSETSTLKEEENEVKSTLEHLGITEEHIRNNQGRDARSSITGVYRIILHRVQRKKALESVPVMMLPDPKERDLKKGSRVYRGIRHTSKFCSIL
